Measured values: patent US20090155236A1, “Peptide sequence for modulation of delta protein kinase c” (NATIONAL INSTITUES OF HEALTH (NIH), U.S. DEPT OF HEALTH AND …, priority 2004, published 2009)

Columns and labels:
delta PKC [1] = molecular target: T1, delta PKC (Rattus norvegicus, UniProt P09215); assay: ELISA binding of annexin I and annexin V to delta PKC; details: FIG. 3
Source text: Annexin V binds with higher affinity to delta PKC than does annexin I (SEQ ID NO:9), as was shown in another study presented in FIG. 3. The percent binding of annexin 1 and annexin V to delta PKC (SEQ ID NO:3) in the presence and absence of calcium was investigated using ELISA (Example 2). […] In the presence of calcium the binding increased to 100%. In contrast, annexin I binding to delta PKC was unaffected by the presence of calcium and remained at about 70% both in the absence and presence of calcium.
(§1) Annexin V (SEQ ID NO:2) was diluted in 100 mM carbonate buffer (pH=9.6) and 100 μl of the diluted solution is placed in each well of a microtiter plate to give 0.1 μg Annexin V per well. The plate was incubated overnight at 4° C. After the overnight incubation, the plate was blocked for 1 hour at room temperature with 200 μL/well of 1% bovine serum albumin (BSA).
The interaction partners, delta PKC (SEQ ID NO:3), delta V1 PKC (SEQ ID NO:4), and delta V5 PKC (SEQ ID NO:5), were diluted in 100 mM HEPES. For the full length delta PKC, approximately 1.5 μg/well (1:20 dilution of cell lysate) was added. For the delta V1 and delta V5 PKC regions, between about 8000-80 ng/well was added, with an intermediate concentration being sufficient. Signal to noise increased dramatically at higher concentrations; therefore, 8 μg/well was preferred (this corresponds to 1:40 dilution of cell lysate). 100 μL/well, 1 hour w/shaking. Binding was accelerated at 37° C., however room temperature was also sufficient for binding.
After 1 hour shaking, the plate was washed three times with 100 mM HEPES (200 μL/well×3), with 5 minutes for each wash, with shaking.
Next, a primary antibody in milk (usually 1:1000 dilution) was added, followed by 1 hour at room temperature with shaking. The plate was then washed three times, (200 μL/well×3) with PBS Tween (0.1% Tween), with 5 minutes per wash with shaking.
Then, the secondary antibody diluted in PBS Tween (usually 1:1000) was added, followed by 1 hour at room temperature with shaking. The plate was then washed three times (200 μL/well×3) with PBS Tween, with 5 minutes per wash with shaking.
(§2) A developing reagent was added (100 μL/well): 1 PNPP tablet per 5 mL diluted buffer. 2N NaOH was added and the plate was allowed to develop and then read at 405 nm (single wavelength).
Target sequence in this assay (P09215 with tags, fused parts or gaps with the stated changes limits assumed): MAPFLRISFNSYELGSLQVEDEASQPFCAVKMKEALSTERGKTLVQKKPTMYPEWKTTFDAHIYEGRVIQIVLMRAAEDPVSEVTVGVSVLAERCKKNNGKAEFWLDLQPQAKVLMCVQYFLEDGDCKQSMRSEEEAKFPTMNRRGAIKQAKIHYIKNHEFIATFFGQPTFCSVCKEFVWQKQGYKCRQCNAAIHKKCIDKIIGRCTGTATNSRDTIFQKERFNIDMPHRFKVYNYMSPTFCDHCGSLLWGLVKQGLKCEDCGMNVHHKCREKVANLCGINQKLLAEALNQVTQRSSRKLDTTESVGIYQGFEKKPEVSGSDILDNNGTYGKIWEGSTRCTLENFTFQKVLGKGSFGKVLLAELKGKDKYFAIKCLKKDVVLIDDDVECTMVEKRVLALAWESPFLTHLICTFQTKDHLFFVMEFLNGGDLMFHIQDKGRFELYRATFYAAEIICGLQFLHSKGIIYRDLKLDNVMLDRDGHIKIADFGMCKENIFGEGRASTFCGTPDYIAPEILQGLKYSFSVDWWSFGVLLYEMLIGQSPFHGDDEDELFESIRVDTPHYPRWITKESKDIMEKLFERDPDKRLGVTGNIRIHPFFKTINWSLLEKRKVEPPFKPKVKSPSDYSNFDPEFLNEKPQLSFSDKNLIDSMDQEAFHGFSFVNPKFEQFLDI

delta PKC [2] = molecular target: T2, delta PKC (Homo sapiens, UniProt Q05655); assay: In vitro kinase assay, histone phosphorylation by delta PKC; type: biochemical; details: in the presence of PS/DAG, FIG. 4A
T2 construct: purchased Panvera LLC, now Invitrogen Corporation
T2 sequence (Q05655 whole entry): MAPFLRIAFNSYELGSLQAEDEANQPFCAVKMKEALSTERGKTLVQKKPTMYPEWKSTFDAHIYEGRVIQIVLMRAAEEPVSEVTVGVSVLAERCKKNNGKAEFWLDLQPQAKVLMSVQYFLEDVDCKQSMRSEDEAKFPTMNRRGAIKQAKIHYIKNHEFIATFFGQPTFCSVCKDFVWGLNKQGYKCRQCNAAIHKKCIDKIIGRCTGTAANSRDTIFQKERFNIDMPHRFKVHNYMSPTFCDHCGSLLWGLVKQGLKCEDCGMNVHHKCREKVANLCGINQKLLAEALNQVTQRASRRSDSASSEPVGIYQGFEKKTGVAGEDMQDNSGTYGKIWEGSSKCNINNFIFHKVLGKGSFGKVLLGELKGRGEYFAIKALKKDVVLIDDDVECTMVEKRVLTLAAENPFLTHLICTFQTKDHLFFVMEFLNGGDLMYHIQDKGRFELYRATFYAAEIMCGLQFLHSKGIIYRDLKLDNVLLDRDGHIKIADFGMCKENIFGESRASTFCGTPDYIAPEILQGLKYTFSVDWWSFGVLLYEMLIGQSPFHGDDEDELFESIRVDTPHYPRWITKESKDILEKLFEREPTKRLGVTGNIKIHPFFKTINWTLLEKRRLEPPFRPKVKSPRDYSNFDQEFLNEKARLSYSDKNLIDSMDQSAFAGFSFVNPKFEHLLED
Experimental: (§3) In another study, the ability of annexin V to increase the catalytic activity of delta PKC in vitro was evaluated. Full-length, recombinant delta PKC (SEQ ID NO:3) and epsilon PKC (SEQ ID NO:6) were separately incubated in the presence of kinase buffer, ATP, or histone, as described in Example 3. Activators of PKC, phosphatidylserine (PS) and diacylglycerol (DAG), were added along with annexin V, JTV-519, a 1,4 benzothiazepine derivative that activates delta PKC (Inagaki, K. et al., Circulation, 101:797 (2000)), or a mixture of annexin V and JTV-519.
(§4) 200 ng of pure delta PKC or epsilon PKC (Panvera LLC, now Invitrogen Corporation, Carlsbad, Calif.) were incubated in 100 μL kinase buffer (20 mM Tris pH 7.4, 50 mM MgCl2, 0.3 μCi/reaction [γ-^32P]ATP (Amersham Biosciences), 9 μM/reaction ATP (Sigma), 30 μg/reaction myelin basic protein or histone A1 (Sigma); 100 μM lipid vesicle mixture (90% phosphatidylserine (PS): 10% diacylglycerol (DAG)), 1 mM CaCl2, 1 μM JTV519, and/or 20 ng of Annexin V/reaction were added, where applicable. The kinase reaction was stopped by the addition of SDS sample buffer, and extent of histone phosphorylation assessed after separation on 15% SDS-PAGE and transfer onto nitrocellulose membrane by autoradiography.

epsilon PKC [3] = molecular target: T3, epsilon PKC (Homo sapiens, UniProt Q02156); assay: In vitro kinase assay, histone phosphorylation by epsilon PKC; type: biochemical; details: in the presence of PS/DAG, FIG. 4B
T3 construct: purchased Panvera LLC, now Invitrogen Corporation
T3 sequence (Q02156 with tags, fused parts or gaps DEL296-297/G298R): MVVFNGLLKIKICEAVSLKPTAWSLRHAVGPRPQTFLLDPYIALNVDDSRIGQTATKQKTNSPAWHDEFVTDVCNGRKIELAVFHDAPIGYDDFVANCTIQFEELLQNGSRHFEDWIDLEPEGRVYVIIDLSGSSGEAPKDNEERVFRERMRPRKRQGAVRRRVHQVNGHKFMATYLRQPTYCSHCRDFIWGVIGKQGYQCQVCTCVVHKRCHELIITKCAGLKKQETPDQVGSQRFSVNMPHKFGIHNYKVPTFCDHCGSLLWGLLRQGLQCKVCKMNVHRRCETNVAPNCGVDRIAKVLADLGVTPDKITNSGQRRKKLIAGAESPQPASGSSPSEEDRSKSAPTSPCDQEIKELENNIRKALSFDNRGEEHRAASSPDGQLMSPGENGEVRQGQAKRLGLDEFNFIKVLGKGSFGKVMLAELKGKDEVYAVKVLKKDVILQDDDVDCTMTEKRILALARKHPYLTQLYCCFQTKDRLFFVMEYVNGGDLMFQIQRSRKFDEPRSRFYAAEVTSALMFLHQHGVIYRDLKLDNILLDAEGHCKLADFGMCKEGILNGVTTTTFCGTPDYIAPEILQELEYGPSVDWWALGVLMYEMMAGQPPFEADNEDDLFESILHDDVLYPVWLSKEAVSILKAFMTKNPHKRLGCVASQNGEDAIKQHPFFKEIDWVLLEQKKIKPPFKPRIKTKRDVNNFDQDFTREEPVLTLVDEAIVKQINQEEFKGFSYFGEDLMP
Experimental: as §3, §4

epsilon PKC [4] = molecular target: T4, epsilon PKC (Rattus norvegicus, UniProt P09216); assay: Overlay assay, immobilized annexin V with epsilon PKC; type: binding; details: FIG. 1
T4 sequence (P09216 1-737): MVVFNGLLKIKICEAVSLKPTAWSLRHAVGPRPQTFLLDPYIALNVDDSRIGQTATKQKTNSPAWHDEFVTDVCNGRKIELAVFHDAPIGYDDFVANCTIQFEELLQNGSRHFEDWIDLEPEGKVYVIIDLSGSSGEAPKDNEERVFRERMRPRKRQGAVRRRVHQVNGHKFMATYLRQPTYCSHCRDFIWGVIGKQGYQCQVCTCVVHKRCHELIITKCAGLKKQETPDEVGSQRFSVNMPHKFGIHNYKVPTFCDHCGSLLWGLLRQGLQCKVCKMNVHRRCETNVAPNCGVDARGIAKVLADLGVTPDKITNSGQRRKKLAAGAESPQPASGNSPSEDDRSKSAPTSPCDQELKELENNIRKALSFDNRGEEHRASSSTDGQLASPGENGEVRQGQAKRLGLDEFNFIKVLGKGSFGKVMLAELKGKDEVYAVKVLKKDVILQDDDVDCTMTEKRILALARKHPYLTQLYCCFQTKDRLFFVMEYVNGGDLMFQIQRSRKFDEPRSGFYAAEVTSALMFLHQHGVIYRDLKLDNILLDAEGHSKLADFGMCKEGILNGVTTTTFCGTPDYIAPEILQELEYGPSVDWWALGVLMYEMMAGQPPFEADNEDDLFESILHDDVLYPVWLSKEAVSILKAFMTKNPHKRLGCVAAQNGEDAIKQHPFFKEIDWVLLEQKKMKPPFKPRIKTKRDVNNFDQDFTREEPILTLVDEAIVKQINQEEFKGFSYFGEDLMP
Source text: (§5) Initial studies were designed to evaluate binding of annexin V to delta PKC, to certain regions of delta PKC (V1 and V5 regions), and to epsilon PKC. In a study detailed in Example 1, an overlay assay using immobilized annexin V (SEQ ID NO:2) and recombinant full-length delta PKC (SEQ ID NO:3), purified full-length epsilon PKC (SEQ ID NO:6), the recombinant V1 region of delta PKC (“V1 delta PKC”, SEQ ID NO:4), and the recombinant V5 region of delta PKC (“V5 delta PKC”, SEQ ID NO:5) was done. The V1 delta PKC peptide conjugated to […] to form a fusion protein, and the V5 delta PKC peptide was conjugated to glutathione-S-transferase to form a fusion protein.
10 μg of annexin V (SEQ ID NO:2) was separated on 12% SDS-PAGE gel and transferred to nitrocellulose, and then cut into strips. The strips were incubated with blocking buffer (50 mM Tris pH 7.5, 200 mM NaCl, 3% bovine serum albumin, 0.1% PEG20). The strips were then incubated in overlay buffer (50 mM Tris pH 7.5, 200 mM NaCl, 1% PEG20, 12 mM β-mercaptoethanol) in the presence where appropriate of 30 μg crude bacterial cell lysate containing fusion proteins of […] V1 PKC (MBP-δV1), glutathione-S-transferase-delta V5 PKC (GST-δV5), and full length sequences of delta (δPKC, SEQ ID NO:3) or rat purified epsilon (εPKC, SEQ ID NO:6) at 37° C. for 30 min. […]

delta PKC [5] = molecular target: T1, delta PKC; assay: Overlay assay, immobilized annexin V with delta PKC, delta V1 and delta V5 domains; type: binding; parameters: made in house; host or cells: crude bacterial cell lysate (not clear whether this also covers the full-length protein)
Source text: as §5
10 μg of annexin V (SEQ ID NO:2) was separated on 12% SDS-PAGE gel and transferred to nitrocellulose, and then cut into strips. The strips were incubated with blocking buffer (50 mM Tris pH 7.5, 200 mM NaCl, 3% bovine serum albumin, 0.1% PEG20). The strips were then incubated in overlay buffer (50 mM Tris pH 7.5, 200 mM NaCl, 1% PEG20, 12 mM β-mercaptoethanol) in the presence where appropriate of 30 μg crude bacterial cell lysate containing fusion proteins of […] V1 PKC (MBP-δV1), glutathione-S-transferase-delta V5 PKC (GST-δV5), and full length sequences of delta (δPKC, SEQ ID NO:3) or rat purified epsilon (εPKC, SEQ ID NO:6) at 37° C. for 30 min. The strips where then washed with wash buffer (50 mM Tris pH 7.5, 200 mM NaCl, 0.1% PEG20, 12 mM O-mercaptoethanol), and then incubated with fixative (0.2% formaldehyde in PBS) and neutralizing solution (0.2M glycine in PBS) at room temperature 20 min each. After washing with buffer, the strips were probed with antibodies according to the overlay protein, and resulting bands visualized using ECL Western blotting.

delta V1 PKC = molecular target: T5, delta V1 PKC (Rattus norvegicus, UniProt P09215); assay: ELISA binding of annexin V protein to delta V1 PKC; details: FIG. 2
T5 construct: MBP (printed as 'myelin basic protein'); made in house
T5 sequence (P09215 1-160): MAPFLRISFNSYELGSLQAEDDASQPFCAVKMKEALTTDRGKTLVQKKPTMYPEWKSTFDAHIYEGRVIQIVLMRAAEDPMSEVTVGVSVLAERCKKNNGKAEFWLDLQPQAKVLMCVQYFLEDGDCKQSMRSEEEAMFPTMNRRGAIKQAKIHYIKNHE
Source text: In another study, binding of annexin V protein to the V1 regions of epsilon PKC (SEQ ID NO:7) and of delta PKC (SEQ ID NO:4) was examined using ELISA, as described in Example 2. […] Binding of annexin V protein (SEQ ID NO:2) to delta V1 PKC in the absence of calcium was about 55%. In the presence of calcium binding was increased to 100%. […] Thus, annexin V protein binds to full-length PCK and to the V1 and V5 domains of delta PKC in vitro in an isozyme specific manner.
as §1
The interaction partners, delta PKC (SEQ ID NO:3), delta V1 PKC (SEQ ID NO:4), and delta V5 PKC (SEQ ID NO:5), were diluted in 100 mM HEPES. For the full length delta PKC, approximately 1.5 μg/well (1:20 dilution of cell lysate) was added. For the delta V1 and delta V5 PKC regions, between about 8000-80 ng/well was added, with an intermediate concentration being sufficient. […]
as §2

B1: annexin V: human annexin V protein (protein, listed as Homo sapiens)
chain: MAQVLRGTVTDFPGFDERADAETLRKAMKGLGTDEESILTLLTSRSNAQRQEISAAFKTLFGRDLLDDLKSELTGKFEKLIVALMKPSRLYDAYELKHALKGAGTNEKVLTEIIASRTPEELRAIKQVYEEEYGSSLEDDVVGDTSGYYQRMLVVLLQANRDPDAGIDEAQVEQDAQALFQAGELKWGTDEEKFITIFGTRSVSHLRKVFDKYMTISGFQIEETIDRETSGNLEQLLLAVVKSIRSIPAYLAETLYYAMKGAGTDDHTLIRVMVSRSEIDLFNIRKEFRKNFATSKMIKGDTSGDYKKALLLLCGEDD
percent binding to delta PKC (delta PKC [1]; absence of calcium): about 75% | percent binding to delta PKC (delta PKC [1]; presence of calcium): 100% | catalytic activity of delta PKC (histone phosphorylation) (delta PKC [2]): increases the catalytic activity of delta PKC | activity of epsilon PKC (histone phosphorylation) (epsilon PKC [3]): does not increase the activity of epsilon PKC | binding of epsilon PKC to annexin V (epsilon PKC [4]): did not bind | binding of V5 domain of delta PKC to annexin V (delta PKC [5]; FIG. 1, GST-delta V5 fusion protein): bound to annexin V | binding of V1 domain of delta PKC to annexin V (delta PKC [5]; FIG. 1, MBP-delta V1 fusion protein): bound to annexin V | binding of full-length delta PKC to annexin V (delta PKC [5]; FIG. 1, full-length delta PKC): bound to annexin V | percent binding to delta V1 PKC (delta V1 PKC; absence of calcium): about 55% | percent binding to delta V1 PKC (delta V1 PKC; presence of calcium): 100%

B2: annexin I: human annexin I protein (protein, listed as Homo sapiens)
chain: MAMVSEFLKQAWFIENEEQEYVQTVKSSKGGPGSAVSPYPTFNPSSDVAALHKAIMVKGVDEATIIDILTKRNNAQRQQIKAAYLQETGKPLDETLKKALTGHLEEVVLALLKTPAQFDADELRAAMKGLGTDEDTLIEILASRTNKEIRDINRVYREELKRDLAKDITSDTSGDFRNALLSLAKGDRSEDFGVNEDLADSDARALYEAGERRKGTDVNVFNTILTTRSYPQLRRVFQKYTKYSKHDMNKVLDLELKGDIEKCLTAIVKCATSKPAFFAEKLHQAMKGVGTRHKALIRIMVSRSEIDMNDIKAFYQKMYGISLCQAILDETKGDYEKILVALCGGN
percent binding to delta PKC (delta PKC [1]; absence of calcium): about 70% | percent binding to delta PKC (delta PKC [1]; presence of calcium): about 70%
